# Measurements published in patent US20240425848.
# Target: histone H3 trimethylated at lysine 9 (H3K9me3) in native chromatin of Caki-1 cells, P68431
protein,measurement,value
Tn5 (protein) MITSALHRAADWAKSVFSSAALGDPRRTARLVNVAAQLAKYSGKSITISSEGSKAMQEGAYRFIRNPNVSAEAIRKAGAMQTVKLAQEFPELLAIEDTTSLSYRHQVAEELGKLGSIQDKSRGWWVHSVLLLEATTFRTVGLLHQEWWMRPDDPADADEKESGKWLAAAATSRLRMGSMMSNVIAVCDREADIHAYLQDKLAHNERFVVRSKHPRKDVESGLYLYDHLKNQPELGGYQISIPQKGVVDKRGKRKNRPARKASLSLRSGRITLKQGNITLNAVLAEEINPPKGETPLKWLLLTSEPVESLAQALRVIDIYTHRWRIEEFHKAWKTGAGAERQRMEEPDNLERMVSILSFVAVRLLQLRESFTPPQALRAQGLLKEAEHVESQSAETVLTPDECQLLGYLDKGKRKRKEKAGSLQWAYMAIARLGGFMDSKRTGIASWGALWEGWEALQSKLDGFLAAKDLMAQGIKI,"Ec: global enrichment of the ATAC-seq tagmentation signal over H3K9me3-marked regions, log2(ratio) over genomic Input, Caki-1; subscript printed as 0, first E line of the box",E0= -5.07
same,"Ec: global enrichment of the ATAC-seq tagmentation signal over H3K9me3-marked regions, log2(ratio) over genomic Input, Caki-1 [Continued) e]",Ec= -5.07
same,"Mc: modal enrichment of the ATAC-seq tagmentation signal over H3K9me3-marked regions, log2(ratio) over genomic Input, Caki-1; subscript printed as 0, first M line of the box, agrees with the mode of t",M0= -2.19
same,"Mc: modal enrichment of the ATAC-seq tagmentation signal over H3K9me3-marked regions, log2(ratio) over genomic Input, Caki-1 [Continued) e]",Mc= -2.19
same,stated: no tagmentation signal over H3K9me3 ChIP-seq domains (ATAC-seq on permeabilized Caki-1 nuclei),Tn5 track (scale 0-140.7): near zero over the H3K9me3 domains at about 42.4-43.4 and 43.8-44.6 Mbp of Chr. 19; peaks only where the H3K4me3 track has peaks
same,"stated: no tagmentation signal over H3K9me3 ChIP-seq domains (ATAC-seq, Caki-1)","Tn5 track (scale 0-50): clusters of sharp peaks at the positions of the H3K4me3 peaks; near zero at about 59-62 Mbp of Chr.12, where the H3K9me3 and TnH tracks are raised"
same,"stated: no tagmentation signal over H3K9me3 ChIP-seq domains (bulk ATAC-seq with Tn5 alone and scGET-seq pseudo-bulk, Caki-1) [Continued) g]",tn5 and tn5 pseudobulk tracks (scale 0-50 each): flat near 0 at about 33.5-34.7 Mbp and near 0 inside the H3K9me3 domains at about 36.6-37.4 and 38.2-38.9 Mbp of chr1; sharp peaks at the positions of the H3K4me3 peaks
